Test results from patent US20170106084A1 (Hoffmann-La Roche, published 2017).
Where a chain is given by its changes, count along the chain named. Blank lines part the entries; values can stand above or below the binder they belong to. Square brackets hold non-standard residues; d marks the D form. Ends that are not written are not given here. pS = N[C@@H](COP(=O)(O)O)C(=O)O

Legend:
[1] = biological target: T1, transferrin receptor on hCMEC/D3 cells (UniProt P02786 1-760, limits assumed); assay: transwell assay on hCMEC/D3 cells, IgG ELISA
T1 construct: whole, on cells; also called TfR
T1 sequence (P02786 whole entry): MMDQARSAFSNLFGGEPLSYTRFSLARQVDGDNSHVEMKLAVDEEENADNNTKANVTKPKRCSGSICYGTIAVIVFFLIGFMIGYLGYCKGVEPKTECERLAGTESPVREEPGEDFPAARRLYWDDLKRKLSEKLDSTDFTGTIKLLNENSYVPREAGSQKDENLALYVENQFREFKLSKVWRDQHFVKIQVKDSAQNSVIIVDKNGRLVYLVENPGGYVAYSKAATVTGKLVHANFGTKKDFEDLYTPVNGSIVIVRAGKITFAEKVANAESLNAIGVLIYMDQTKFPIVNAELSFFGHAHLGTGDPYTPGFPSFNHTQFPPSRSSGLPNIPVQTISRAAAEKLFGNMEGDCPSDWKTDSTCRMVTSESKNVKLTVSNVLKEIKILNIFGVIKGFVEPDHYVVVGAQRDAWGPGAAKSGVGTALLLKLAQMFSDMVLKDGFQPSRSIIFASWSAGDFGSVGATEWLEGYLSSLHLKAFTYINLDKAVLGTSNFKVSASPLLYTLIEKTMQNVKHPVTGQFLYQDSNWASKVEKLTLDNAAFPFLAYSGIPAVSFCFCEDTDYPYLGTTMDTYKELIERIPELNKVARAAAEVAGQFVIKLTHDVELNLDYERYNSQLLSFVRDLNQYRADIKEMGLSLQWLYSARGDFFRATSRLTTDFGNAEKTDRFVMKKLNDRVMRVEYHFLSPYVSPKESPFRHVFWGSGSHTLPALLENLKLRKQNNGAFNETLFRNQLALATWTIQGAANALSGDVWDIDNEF
Experimental: We used brain endothelial cells (hCMEC/D3) to investigate cell binding and transcytosis of the shuttle modules as reported herein. […] Cell monolayers were washed at room temperature in serum-free medium apically (400 μl) and basolaterally (1600 μl) three times for 3-5 minutes each. All wash volumes were collected to monitor efficiency of removal of the unbound ligand or antibody. Pre-warmed medium was added to the apical chamber and the filters transferred to a fresh 12 well plate (blocked overnight with PBS containing 1% BSA) containing 1600 μl pre-warmed medium. At this point, cells were lysed in 500 μl RIPA buffer (Sigma, Munich, Germany, #R0278) in order to determine specific uptakes. The remaining filters were incubated at 37° C. and samples collected at various time points to determine apical and/or basolateral release. The content of antibody in the samples was quantified using a highly sensitive IgG ELISA.

[2] = biological target: full length human tau S422A mutant (human, UniProt P10636 2-758); assay: ELISA, coated antigen
full length human tau S422A mutant, sequence (P10636 other isoform, or with tags, fused parts or gaps S422A S422A limits assumed): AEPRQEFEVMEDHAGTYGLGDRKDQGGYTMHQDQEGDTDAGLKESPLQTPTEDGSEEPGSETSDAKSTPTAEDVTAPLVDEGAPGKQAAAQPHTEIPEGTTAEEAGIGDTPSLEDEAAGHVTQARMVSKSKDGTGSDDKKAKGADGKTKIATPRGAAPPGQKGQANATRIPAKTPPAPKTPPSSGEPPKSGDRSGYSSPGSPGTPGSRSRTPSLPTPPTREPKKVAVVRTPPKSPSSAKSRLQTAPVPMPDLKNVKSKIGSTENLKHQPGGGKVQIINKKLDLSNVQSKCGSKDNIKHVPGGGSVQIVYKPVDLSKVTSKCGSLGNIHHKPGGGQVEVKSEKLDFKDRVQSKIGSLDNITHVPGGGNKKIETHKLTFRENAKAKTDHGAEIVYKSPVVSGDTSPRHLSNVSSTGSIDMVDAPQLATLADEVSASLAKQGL

[3] = biological target: T2, human tau(pS422) fragment SEQ ID NO: 03 (human, also: biotinylated); assay: ELISA, coated antigen
T2 construct: also called phosphorylated tau peptide
T2 peptide: SIDMVD[pS]PQLATLAD

[4] = biological target: T3, tau peptide residues 416 to 430 of SEQ ID NO: 01 (human, also: biotinylated, site not given here); assay: ELISA, coated antigen
T3 construct: also called non-phosphorylated tau peptide
T3 peptide: SIDMVDSPQLATLAD

[5] = biological target: T2, human tau(pS422) fragment SEQ ID NO: 03; assay: ELISA, biotinylated peptide on streptavidin plate
Experimental: (§1) Rabbit monoclonal antibodies were recombinantly expressed in HEK 293 cells. […] Coating with KLH or control peptides was performed at 1 μg/ml. […] After intensive washing, the binding of the rabbit antibodies was detected using a sheep anti-rabbit IgG digoxigenin conjugated detection antibody (Chemicon AQ301D). […] The antibody binding was characterized by its EC50 values. […] Cross-reactivity with KLH or MCAK phosphopeptide was estimated by single-point measurement at high concentrations, i.e. at 1:5 dilution of the cell culture supernatants.

[6] = biological target: T3, tau peptide residues 416 to 430 of SEQ …; assay: ELISA, biotinylated peptide on streptavidin plate
Experimental: as §1

[7] = biological target: T2, human tau(pS422) fragment SEQ ID NO: 03; assay: ELISA, ratio of EC50 values
Experimental: as §1

[8] = biological target: T4, MCAK_Human (88-102)[95-pSer] (human, UniProt Q99661 88-102, also: biotinylated, site not given here); assay: ELISA, single point
T4 construct: also called MCAK phosphopeptide
T4 peptide (looked up): IQKQKRR[pS]VNSKIPA

[9] = biological target: T1, transferrin receptor on hCMEC/D3 cells; assay: transwell assay on hCMEC/D3 cells, huFc ELISA
[10] = biological target: T1, transferrin receptor on hCMEC/D3 cells; assay: transwell assay on hCMEC/D3 cells, huFc ELISA; remark: listed apart in the source

B1: TfR1-Bio (bispecific antibody, human IgG1, kappa)
heavy: not shown
light: QIVLTQSPAIMSASPGEKVTMTCSASSSIRYIHWYQQRPGTSPKRWIYDTSNLASGVPARFSGSGSGTSYSLTISSMEAEDAATYYCHQRNSYPWTFGGGTRLEIKRTVAAPSVFIFPPSDEQLKSGTASVVCLLNNFYPREAKVQWKVDNALQSGNSQESVTEQDSKDSTYSLSSTLTLSKADYEKHKVYACEVTHQGLSSPVTKSFNRGEC
notes: bivalent anti-TfR1 IgG with an anti-biotin scFv at each CH3 C-terminus; also called anti-TfR1 antibody-Bio
binding result [1]: binds

B3: VH32/VL21 (antibody, V domains shown)
VH: EVQVLESGGGLVQPGGSLRLSCAVSGFSLSSNAINWVRQAPGKGLEWVGYIAVSGNTYYASWAKGRFTISRDNSKNTVYLQMNSLRAEDTAVYYCGKSNIWGQGTLVTVSS
VL: AQVMTQSPSSLSASVGDRVTITCRSSQSVRTNKLAWFQQKPGQPPKRLIYSASTLDFGVPSRFSGSGSGTEFTLTISSLQPEDFATYYCLGYFDSSADIVAFGGGTKVEIK
notes: full size IgG; kappa (59) or lambda (60) light constant not specified
EC50 [2]: 0.0215 µg/mL
EC50 [3]: 0.0044 µg/mL
EC50 [4]: 0.634 µg/mL

B4: VH32/VL22 (antibody, V domains shown)
VH: B3 VH
VL: B3 VL with K33R, F57Y
notes: as for B3
EC50 [2]: 0.0174 µg/mL
EC50 [4]: 0.048 µg/mL

B5: VH00/VL00 (antibody, V domains shown)
VH: QSVEESGGRLVTPGTPLTLTCTVSGFSLSSNAINWVRQAPGKGLEWIGYIAVSGNTYYASWAKGRFTISKASTTVDLKMTSPTAEDTGTYFCGKSNIWGPGTLVTVSL
VL: AQVLTQTTSPVSAAVGSTVTISCQSSQSVRTNKLAWFQQKPGQPPKRLIYSASTLDFGVPSRFSASGSGTQFTLTISDVQCDDAATYYCLGYFDCSIADCVAFGGGTEVVVK
notes: rabbit variable domains; also called VH00 with VL00 (rabbit antibody); parent rabbit antibody
EC50 [2]: 0.0479 µg/mL

The remaining lines, values ahead:

binding result [1]: binds
B2: TfR2-Bio (bispecific antibody, human IgG1, kappa)
heavy: not shown
light: B1 light with M21V, I32M, R38K, N52E, S75N, N91S, W95F, R102K
notes: bivalent anti-TfR2 IgG with an anti-biotin scFv at each CH3 C-terminus; also called anti-TfR2-Bio

EC50 [5]: 0.0011 µg/mL
EC50 [6]: 0.266 µg/mL
selectivity against non-phosphorylated tau peptide [7]: ≥ 100 fold
binding result [8]: no binding
B6: mAb 086 (antibody, V domains shown)
VH: B5 VH
VL: B5 VL
notes: recombinant rabbit IgG; also called rabbit antibody mAb 086

binding result [9]: binds
B7: anti-TfR1 antibody (TfR1) (antibody, V domains shown)
VH: EVQLQQSGPELVKPGASMKISCKASGYSFTGYTMNWVKQSHGENLEWIGRINPHNGGTDYNQKFKDKAPLTVDKSSNTAYMELLSLTSEDSAVYYCARGYYYYSLDYWGQGTSVTVSS
VL: QIVLTQSPAIMSASPGEKVTMTCSASSSIRYIHWYQQRPGTSPKRWIYDTSNLASGVPARFSGSGSGTSYSLTISSMEAEDAATYYCHQRNSYPWTFGGGTRLEIKR
notes: also called parent antibody

binding result [10]: binds
B8: anti-TfR2 antibody (TfR2) (antibody, V domains shown)
VH: EVQLQQSGPELVKPGASVKMSCKASGYTFTSYVMHWVKQKPGQGLEWIGYVNPYNDDTKYNEKFRGKATLTSDKSSSTAYMELSSLTSEDSAVYYCARSYYYYSMDNWGQGTSVTVSS
VL: B7 VL with M21V, I32M, R38K, N52E, S75N, N91S, W95F, R102K
notes: also called parent antibody
